Measurements: patent publication US20120172293A1 (Takeda / Millennium, published 2012)
Blank lines part the entries; values can stand above or below the molecule they belong to. Non-standard residues stand in square brackets, D forms with d. Cha = N[C@@H](CC1CCCCC1)C(=O)O; Iva = CC[C@](C)(N)C(=O)O; Aib = CC(C)(N)C(=O)O

Columns and labels:
[1] = target: human Y2 receptor (human) (UniProt P49146); assay: cell-based or functional assay
[2] = target: human Y2 receptor (human) (UniProt P49146); assay: RBA: displacement of [125I]-PYY from hY2R/CHO membranes

Chain of human Y2 receptor (human) (P49146 whole entry): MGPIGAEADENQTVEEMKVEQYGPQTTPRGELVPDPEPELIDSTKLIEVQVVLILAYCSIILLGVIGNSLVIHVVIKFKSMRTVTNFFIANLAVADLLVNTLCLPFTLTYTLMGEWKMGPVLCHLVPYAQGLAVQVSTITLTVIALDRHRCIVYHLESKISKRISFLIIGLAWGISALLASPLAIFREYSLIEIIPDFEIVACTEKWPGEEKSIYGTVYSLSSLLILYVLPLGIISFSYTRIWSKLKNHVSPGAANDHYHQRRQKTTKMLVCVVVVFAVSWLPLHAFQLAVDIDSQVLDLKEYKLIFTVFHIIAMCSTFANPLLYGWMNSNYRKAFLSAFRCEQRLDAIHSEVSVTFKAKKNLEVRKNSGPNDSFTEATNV

GBA EC50 Ratio ([35S]GTPγS binding) (EC50 compound/EC50 PYY(3-36)) [1]: 1.8 | IC50 Ratio (IC50 compound/IC50 PYY(3-36)) [2]: 1.1
Molecule: Ac-[D-Pro24, Nar25, Pya(4)26, Cha27,36, Aib28,31, Lys30]-PYY(23-36) (peptide)

GBA EC50 Ratio ([35S]GTPγS binding) (EC50 compound/EC50 PYY(3-36)) [1]: 1.6 | IC50 Ratio (IC50 compound/IC50 PYY(3-36)) [2]: 0.55
Molecule: Ac-[D-Pro24, Pya(4)26, Cha27,36, Aib28, Lys30, D-Iva31]-PYY(23-36) (peptide)

GBA EC50 Ratio ([35S]GTPγS binding) (EC50 compound/EC50 PYY(3-36)) [1]: 0.61 | IC50 Ratio (IC50 compound/IC50 PYY(3-36)) [2]: 0.52
Molecule: Tetrahydro-2H-pyran-4-yl-carbamoyl-[D-Pro24, Pya(4)26, Cha27,36, Aib28,31, Lys30]-PYY(23-36) (peptide)

GBA EC50 Ratio ([35S]GTPγS binding) (EC50 compound/EC50 PYY(3-36)) [1]: 1.2 | IC50 Ratio (IC50 compound/IC50 PYY(3-36)) [2]: 0.33
Molecule: Ac-[D-Pro24, Pya(4)26, Cha27,36, Iva28, Lys30, Aib31]-PYY(23-36) (peptide)

GBA EC50 Ratio ([35S]GTPγS binding) (EC50 compound/EC50 PYY(3-36)) [1]: 1.2 | IC50 Ratio (IC50 compound/IC50 PYY(3-36)) [2]: 0.91
Molecule: Ac-[D-Pro24, Pya(4)26, Cha27, Aib28,31, Lys30, Phe(3Me)36]-PYY(23-36) (peptide)

GBA EC50 Ratio ([35S]GTPγS binding) (EC50 compound/EC50 PYY(3-36)) [1]: 0.8 | IC50 Ratio (IC50 compound/IC50 PYY(3-36)) [2]: 0.72
Molecule: Ac-[D-Pro24, Pya(4)26, Cha27,36, Aib28,31, Ala(4-pip)30]-PYY(23-36) (peptide)

GBA EC50 Ratio ([35S]GTPγS binding) (EC50 compound/EC50 PYY(3-36)) [1]: 1.3 | IC50 Ratio (IC50 compound/IC50 PYY(3-36)) [2]: 1
Molecule: Ac-[D-Pro24, Pya(4)26, Cha27,36, Aib28,31, Lys(Hexyl)30]-PYY(23-36) (peptide)

GBA EC50 Ratio ([35S]GTPγS binding) (EC50 compound/EC50 PYY(3-36)) [1]: 1.6 | IC50 Ratio (IC50 compound/IC50 PYY(3-36)) [2]: 0.93
Molecule: 4-Pyridinecarbonyl-[D-Hyp24, Iva25, Pya(4)26, Cha27,36, Leu(Me)28, Lys30, Aib31]-PYY(23-36) (peptide)

GBA EC50 Ratio ([35S]GTPγS binding) (EC50 compound/EC50 PYY(3-36)) [1]: 1.2 | IC50 Ratio (IC50 compound/IC50 PYY(3-36)) [2]: 0.96
Molecule: 3-Carboxypropionyl-[D-Pro24, Pya(4)26, Cha27,36, Aib28,31, Lys30]-PYY(23-36) (peptide)

GBA EC50 Ratio ([35S]GTPγS binding) (EC50 compound/EC50 PYY(3-36)) [1]: 3.9 | IC50 Ratio (IC50 compound/IC50 PYY(3-36)) [2]: 10
Molecule: Ac-[D-Pro24, Pya(4)26, Phe(4F)27, Aib28,31, Lys30, Cha36]-PYY(23-36) (peptide)

GBA EC50 Ratio ([35S]GTPγS binding) (EC50 compound/EC50 PYY(3-36)) [1]: 1.6 | IC50 Ratio (IC50 compound/IC50 PYY(3-36)) [2]: 1.2
Molecule: Ac-[Dap22, D-Pro24, Pya(4)26, Cha27,36, Aib28,31, Lys30]-PYY(22-36) (peptide)

GBA EC50 Ratio ([35S]GTPγS binding) (EC50 compound/EC50 PYY(3-36)) [1]: 1.5 | IC50 Ratio (IC50 compound/IC50 PYY(3-36)) [2]: 1.2
Molecule: (5-carboxypentyl)carbamoyl-[D-Pro24, Pya(4)26, Cha27,36, Aib28,31, Lys30]-PYY(23-36) (peptide)

GBA EC50 Ratio ([35S]GTPγS binding) (EC50 compound/EC50 PYY(3-36)) [1]: 0.67 | IC50 Ratio (IC50 compound/IC50 PYY(3-36)) [2]: 0.36
Molecule: Ac-[D-Pro24, Pya(4)26, Cha27,36, Iva28, Lys30, D-Iva31]-PYY(23-36) (peptide)

GBA EC50 Ratio ([35S]GTPγS binding) (EC50 compound/EC50 PYY(3-36)) [1]: 1.4 | IC50 Ratio (IC50 compound/IC50 PYY(3-36)) [2]: 1.5
Molecule: Ac-[D-Hyp24, Iva25, Pya(4)26, Cha27,36, Aib28,31, Lys30]-PYY(23-36) (peptide)

GBA EC50 Ratio ([35S]GTPγS binding) (EC50 compound/EC50 PYY(3-36)) [1]: 1.2 | IC50 Ratio (IC50 compound/IC50 PYY(3-36)) [2]: 1.2
Molecule: (Carboxymethyl)carbamoyl-[D-Pro24, Pya(4)26, Cha27,36, Aib28,31, Lys30]-PYY(23-36) (peptide)

GBA EC50 Ratio ([35S]GTPγS binding) (EC50 compound/EC50 PYY(3-36)) [1]: 2.2 | IC50 Ratio (IC50 compound/IC50 PYY(3-36)) [2]: 2.8
Molecule: Ac-[D-Pro24, Cit25, Pya(4)26, Cha27,36, Aib28,31, Lys30]-PYY(23-36) (peptide)

GBA EC50 Ratio ([35S]GTPγS binding) (EC50 compound/EC50 PYY(3-36)) [1]: 1 | IC50 Ratio (IC50 compound/IC50 PYY(3-36)) [2]: 0.31
Molecule: Ac-[D-Pro24, Pya(4)26, Cha27,36, Iva28,31, Lys30]-PYY(23-36) (peptide)

GBA EC50 Ratio ([35S]GTPγS binding) (EC50 compound/EC50 PYY(3-36)) [1]: 1 | IC50 Ratio (IC50 compound/IC50 PYY(3-36)) [2]: 0.86
Molecule: Ac-[D-Hyp24, Iva25,28, Pya(4)26, Cha27,36, Lys30, Aib31]-PYY(23-36) (peptide)

GBA EC50 Ratio ([35S]GTPγS binding) (EC50 compound/EC50 PYY(3-36)) [1]: 1.1 | IC50 Ratio (IC50 compound/IC50 PYY(3-36)) [2]: 0.97
Molecule: Ac-[D-Pro24, Pya(4)26, Cha27,36, Aib28,31, Lys(Ac)30]-PYY(23-36) (peptide)

GBA EC50 Ratio ([35S]GTPγS binding) (EC50 compound/EC50 PYY(3-36)) [1]: 1.5 | IC50 Ratio (IC50 compound/IC50 PYY(3-36)) [2]: 0.97
Molecule: Ac-[D-Hyp24, Iva25, Pya(4)26, Cha27,36, Leu(Me)28, Lys30, Aib31]-PYY(23-36) (peptide)

GBA EC50 Ratio ([35S]GTPγS binding) (EC50 compound/EC50 PYY(3-36)) [1]: 1.3 | IC50 Ratio (IC50 compound/IC50 PYY(3-36)) [2]: 0.99
Molecule: 4-Imidazolecarbonyl-[D-Hyp24, Iva25,28, Pya(4)26, Cha27,36, Lys30, Aib31]-PYY(23-36) (peptide)

GBA EC50 Ratio ([35S]GTPγS binding) (EC50 compound/EC50 PYY(3-36)) [1]: 1.4 | IC50 Ratio (IC50 compound/IC50 PYY(3-36)) [2]: 0.82
Molecule: Ac-[D-Pro24, Har25, Pya(4)26, Cha27,36, Aib28,31, Lys30]-PYY(23-36) (peptide)

GBA EC50 Ratio ([35S]GTPγS binding) (EC50 compound/EC50 PYY(3-36)) [1]: 0.94 | IC50 Ratio (IC50 compound/IC50 PYY(3-36)) [2]: 1.3
Molecule: (2-Carboxyethyl)carbamoyl-[D-Pro24, Pya(4)26, Cha27,36, Aib28,31, Lys30]-PYY(23-36) (peptide)

GBA EC50 Ratio ([35S]GTPγS binding) (EC50 compound/EC50 PYY(3-36)) [1]: 0.82 | IC50 Ratio (IC50 compound/IC50 PYY(3-36)) [2]: 0.82
Molecule: [(1S)-1-Carboxy-3-methylbutyl]carbamoyl-[D-Pro24, Pya(4)26, Cha27,36, Aib28,31, Lys30]-PYY(23-36) (peptide)

GBA EC50 Ratio ([35S]GTPγS binding) (EC50 compound/EC50 PYY(3-36)) [1]: 0.92 | IC50 Ratio (IC50 compound/IC50 PYY(3-36)) [2]: 1.3
Molecule: 4-Imidazolecarbonyl-[D-Hyp24, Iva25, Pya(4)26, Cha27,36, Aib28,31, Lys30]-PYY(23-36) (peptide)

GBA EC50 Ratio ([35S]GTPγS binding) (EC50 compound/EC50 PYY(3-36)) [1]: 1.7 | IC50 Ratio (IC50 compound/IC50 PYY(3-36)) [2]: 2.9
Molecule: Ac-[D-Pro24, Pya(4)26, Nal(1)27, Aib28,31, Lys30, Cha36]-PYY(23-36) (peptide)

GBA EC50 Ratio ([35S]GTPγS binding) (EC50 compound/EC50 PYY(3-36)) [1]: 0.71 | IC50 Ratio (IC50 compound/IC50 PYY(3-36)) [2]: 1.1
Molecule: (Tetrahydro-2H-pyran-4-yl)carbonyl-[D-Pro24, Pya(4)26, Cha27,36, Aib28,31, Lys30]-PYY(23-36) (peptide)

GBA EC50 Ratio ([35S]GTPγS binding) (EC50 compound/EC50 PYY(3-36)) [1]: 0.79 | IC50 Ratio (IC50 compound/IC50 PYY(3-36)) [2]: 0.36
Molecule: Ac-[D-Pro24, Pya(4)26, Cha27,36, Aib28,31, Har30]-PYY(23-36) (peptide)

GBA EC50 Ratio ([35S]GTPγS binding) (EC50 compound/EC50 PYY(3-36)) [1]: 11 | IC50 Ratio (IC50 compound/IC50 PYY(3-36)) [2]: 17
Molecule: Ac-[D-Pro24, Pya(4)26, Ala(4Pip)27, Aib28,31, Lys30, Cha36]-PYY(23-36) former peak (peptide)

GBA EC50 Ratio ([35S]GTPγS binding) (EC50 compound/EC50 PYY(3-36)) [1]: 1.9 | IC50 Ratio (IC50 compound/IC50 PYY(3-36)) [2]: 0.92
Molecule: 3-Carboxypropionyl-[D-Hyp24, Iva25, Pya(4)26, Cha27,36, Leu(Me)28, Lys30, Aib31]-PYY(23-36) (peptide)

GBA EC50 Ratio ([35S]GTPγS binding) (EC50 compound/EC50 PYY(3-36)) [1]: 20 | IC50 Ratio (IC50 compound/IC50 PYY(3-36)) [2]: 43
B1: Ac-[D-Pro24, Cha27,28,36, Iva30, Aib31]-PYY(23-36) (peptide)
peptide: Ac-S[dP]RH[Cha][Cha]N[Iva][Aib]TRQR[Cha]-NH2
SMILES: CC[C@](C)(NC(=O)[C@H](CC(N)=O)NC(=O)[C@H](CC1CCCCC1)NC(=O)[C@H](CC1CCCCC1)NC(=O)[C@H](Cc1c[nH]cn1)NC(=O)[C@H](CCCNC(=N)N)NC(=O)[C@H]1CCCN1C(=O)[C@H](CO)NC(C)=O)C(=O)NC(C)(C)C(=O)N[C@H](C(=O)N[C@@H](CCCNC(=N)N)C(=O)N[C@@H](CCC(N)=O)C(=O)N[C@@H](CCCNC(=N)N)C(=O)N[C@@H](CC1CCCCC1)C(N)=O)[C@@H](C)O
